The nature of series [1]: Enzymatic hydrolysis of CMC (DNS / Azo-CMC reducing sugar assay) in the presence of EMIM Acetate ([C2mim][OAc]). The format is biochemical. As to the method: (v/v) were incubated at 37° C. (T. viride), 80° C. (TmaEG, Pho EG). The specific activities were calculated as mmoles of reducing sugars formed per min per mg of enzyme. The specific activities are reported as percentages of residual specific activity, taking the specific activity of IL free enzyme a 100% activity. Error bars indicate the standard deviation.
The enzymetic activity of the cellulases of Trichoderma viride, Thermatoga maritima, and Pyrococcus horikoshii are measured under varying concentrations of EMIM Acetate. […] The enzymes activities are calculated using both the Azo-CMC assay and the DNS assay. […] At 10% EMIM Acetate the % specific activity of T. viride endoglucanase is near 0%, while at 20% EMIM Acetate the % specific activity of T. maritima endoglucanase is nearly 40%.
Enzymatic activity is measured on soluble polysaccharide substrates, CMC, using the dinitrosalicylic acid reducing sugar assay. Briefly, CMC (2% w/v) in […] acetate buffer, (100 mM, pH 4.8) is incubated with enzyme at 80° C. for 30 minutes for Tma and 37° C. and 10 minutes for T. viride. The solution is cooled down to 4° C. and 80 μL of DNS solution is added. The reactants are incubated at 95° C. for 5 minutes and cooled down to room temperature before the absorbance is read at 540 nm. The reducing sugar concentration in the sample is calculated from its absorbance using the standard curve of D-glucose. All experiments are run in triplicate.
The purified recombinant enzymes are assayed in the presence of [C2mim][OAc] and the specific activity results are compared with the cellulase from T. viride. [C2mim][OAc] was selected as the IL of choice. The assays are performed under optimum pH and temperatures for T. maritima and T. viride enzymes. Optimum pH and temperatures for T. maritima Cel5A is pH 4.8 and 80° C., respectively. Optimum pH and temperatures for T. viride cellulase is pH 4.5 and 37° C., respectively. The Pho EG is assayed at 80° C. where its specific activity is around 10% less than at 95° C. […] In the presence of 5% (v/v) [C2mim][OAc] the enzyme loses 60% of its activity while it is undetectable in the presence of 10% (v/v) [C2mim][OAc]. Both the recombinant hyperthermophilic enzymes behave very differently. Tma Cel5A in the presence of 5% [C2mim][OAc] loses 24% of its specific activity. At 15% IL (v/v), Tma Cel5A retains 50% of its specific activity. The highest residual activities are observed with Pho EG which retains 100% activity in 20% IL (v/v) (FIG. 6).
Enzymatic activity is measured on soluble polysaccharide substrates, CMC, using the 3,5-dinitrosalicylic acid (DNS) reducing sugar assay. Briefly, 2% CMC (w/v) in […] acetate buffer, (100 mM, pH 4.5 and pH 4.8 for T. viride and Tma, respectively, and 100 mM MES buffer, pH 6.4 for P. hori EG) is incubated at 80° C. for 30 min for Tma Cel5A and Pho enzymes and 37° C. and 10 min for T. viride. The solution is cooled down to 4° C. and […] of DNS solution is added. The reactants are incubated at 95° C. for 5 min and cooled down to room temperature before the absorbance is read at 540 nm. The reducing sugar concentration in the sample is calculated from its absorbance using the standard curve of D-glucose and cellobiose. For hydrolysis reactions in the presence of [C2mim][OAc], control reactions with CMC in the presence of IL but without no enzyme is subtracted from each measurement. The solid substrate (Avicel and corn stover) hydrolysis reactions are conducted at 80° C. for 15 h for the recombinant enzymes and at 37° C. for 8 h in the case of T. viride cellulose at the optimum pH for each enzyme. The reaction products are monitored using an Agilent 1200 HPLC equipped with Varian 380-LC Evaporative Light Scattering Detector. The total reaction volumes are […] and shaken at 900 rpm at temperature controlled shakers. Enzyme loadings are 0.4 mg per g of glucan and each data point is measured in triplicate. […]

The nature of series [2]: Melting temperature (Tm) of the enzyme at varying EMIM Acetate concentration. The format is physicochemical.

B1: Pho EG: cellulase of Pyrococcus horikoshii strain OT3 (Accession No. NP_143072); SEQ ID NO: 21 (protein, listed as Pyrococcus horikoshii)
chain: MEGNTILKIVLICTILAGLFGQVVPVYAENTTYQTPTGIYYEVRGDTIYMINVTSGEETPIHLFGVNWFGFETPNHVVHGLWKRNWEDMLLQIKSLGFNAIRLPFCTESVKPGTQPIGIDYSKNPDLRGLDSLQIMEKIIKKAGDLGIFVLLDYHRIGCTHIEPLWYTEDFSEEDFINTWIEVAKRFGKYWNVIGADLKNEPHSVTSPPAAYTDGTGATWGMGNPATDWNLAAERIGKAILKVAPHWLIFVEGTQFTNPKTDSSYKWGYNAWWGGNLMAVKDYPVNLPRNKLVYSPHVYGPDVYNQPYFGPAKGFPDNLPDIWYHHFGYVKLELGYSVVIGEFGGKYGHGGDPRDVIWQNKLVDWMIENKFCDFFYWSWNPDSGDTGGILQDDWTTIWEDKYNNLKRLMDSCSKSSSSTQSVIRSTTPTKSNTSKKICGPAILIILAVFSLLLRRAPR
As for B1, the figures for the “activity in 2.9% EMIM Acetate compared with 0%” value in series [1] and in series [1] (listed as P. horikoshii) were “at least as active in 2.9% EMIM Acetate as in 0% EMIM Acetate” and “remain unchanged”, respectively. In addition, in series [1] (20% EMIM Acetate), the “% Specific Activity” value was determined as 100%. Moreover, the “specific activity at 80° C. less than at 95° C.” value in series [1] (80° C. vs 95° C.) was “around 10%”.

B2: Tma Cel5A: wild-type cellulase of Thermatoga maritima strain MSB8 (Accession No. NP_229549); SEQ ID NO: 20 (protein, listed as Thermotoga maritima)
chain: MGVDPFERNKILGRGINIGNALEAPNEGDWGVVIKDEFFDIIKEAGFSHVRIPIRWSTHAYAFPPYKIMDRFFKRVDEVINGALKRGLAVVINIHHYEELMNDPEEHKERFLALWKQIADRYKDYPETLFFEILNEPHGNLTPEKWNELLEEALKVIRSIDKKHTIIIGTAEWGGISALEKLSVPKWEKNSIVTIHYYNPFEFTHQGAEWVEGSEKWLGRKWGSPDDQKHLIEEFNFIEEWSKKNKRPIYIGEFGAYRKADLESRIKWTSFVVREMEKRRWSWAYWEFCSGFGVYDTLRKTWNKDLLEALIGGDSIE
For B2, in series [1], the “Optimum pH” value was 4.8. Moreover, the Optimum temperature in series [1] is 80 °C. Also, in series [1], the “tolerance to EMIM Acetate compared to T. viride” value is on record as “more tolerant to EMIM Acetate”. The “% Specific Activity” value in series [1] (0% EMIM Acetate) was 100%; in series [1] (5% EMIM Acetate), 77%; in series [1] (10% EMIM Acetate), 65%; in series [1] (15% EMIM Acetate) it was 50%; in series [1] (20% EMIM Acetate, listed as T. maritima endoglucanase), 45%. For the same molecule, the “% Specific Activity (Table 5)” value in series [1] (0% EMIM Acetate) was 31 ± 2^ %; in series [1] (5% EMIM Acetate) it was 24 ± 1^ %; in series [1] (10% EMIM Acetate), 20 ± 0.8%; in series [1] (15% EMIM Acetate), 15 ± 0.5%; in series [1] (20% EMIM Acetate), 13 ± 0.9%. For the same molecule, the “activity in 2.9% EMIM Acetate compared with 0%” value in series [1] was “at least as active in 2.9% EMIM Acetate as in 0% EMIM Acetate”; in series [1] (listed as T. maritima), “remain unchanged”. The “loss of specific activity” value in series [1] (5% (v/v) [C2mim][OAc]) was 24%. Moreover, the “Melting Temp.” value in series [2] (0% EMIM Acetate, listed as T. maritima) amounted to 108 °C; in series [2] (0% EMIM Acetate, listed as T. maritima endoglucanase), 109 °C; in series [2] (5% EMIM Acetate), 101 °C; in series [2] (10% EMIM Acetate) it was 98 °C; in series [2] (15% EMIM Acetate), 93 °C; in series [2] (20% EMIM Acetate), 89 °C. Further, the “Melting Temp. Decrease” value in series [2] (5% EMIM Acetate vs 0%) came to 8 °C; in series [2] (10% EMIM Acetate vs 0%) it was 11 °C; in series [2] (15% EMIM Acetate vs 0%), 16 °C; in series [2] (20% EMIM Acetate vs 0%), 20 °C.

For the origin of these results see patent US9322042B2, “Thermostable cellulases, and mutants thereof, capable of hydrolyzing cellulose in ionic liquid” (The Regents of the University of California, priority 2009, dated 2016).
